Assay results: patent US6958236B2, “Control of gene expression in plants” (priority 2000, dated 2005)

Tested on: pCGS206 (luciferase reporter with response elements for the GAL4 DNA binding domain)
Assay: Maize BMS cells bombarded with GAL4 luciferase reporter and receptor vector, GUS-normalized luciferase
Format: cell-based
Conditions: for Normalized Average (EtOH): unliganded background
Procedure: (§1) Maize BMS (Black Mexican Sweet) cultured cells are transfected with pCGS206 and pCGS208 by high velocity microprojectile bombardment. In addition, an expression plasmid containing the maize ubiquitin promoter driving the expression of β-glucuronidase (GUS) is added to the transfection to serve as an internal control to normalize against variations among the samples.
(§2) Transfections are treated and cell lysates are made essentially as described in U.S. Pat. No. 5,880,333. […] Both luciferase and GUS assays are performed with 20 μl of cell lysate for each assay using the Promega Luciferase Kit (Promega cat #E1500) and GUS-Light Kit (Tropix) respectively. Relative light units are determined using a Turner Designs TD 20/20 luminometer.
In addition to tebufenozide, methoxytebufenozide (“MethoxyTeb”) is also capable of inducing gene expression in maize BMS cells. Both pCGS206 and pCGS208 are transfected as described above and methoxytebufenozide is added in place of tebufenozide at 25 μM and 10 μM.
Maize BMS cells are transfected and assayed as in Example 12.
as §1, with “Transformation of maize suspension cells, chemical treatment, and reporter activity assays are performed as described in Example 12. Maize” for “Maize”, “pCGS206 (pBS-bz1TATA/intronLUC), pCGS203 (G(M)MV), pCGS672 (G(M)MC),” for “pCGS206”, “pCGS678 (G(M)MD)” for “pCGS208”
as §2, with “Maize BMS cells are bombarded with reporter vector pCGS206 and chimeric receptors and treated with tebufenozide essentially as described in Example 12. Transfections” for “Transfections”, “units (RLU)” for “units”

[1] = Example 24, Experiment 1, 20 μM Teb
[2] = Example 24, Experiment 1, BMS cells
[3] = Example 24, Experiment 2, 20 μM Teb
[4] = Example 24, Experiment 2, BMS cells
[5] = Example 26, + 10 μM Teb vs without
[6] = Example 26, BMS cells, reporter pCGS206, no ligand
[7] = Example 28, BMS cells, reporter pCGS206, no ligand, GUS-normalized

Molecule | average fold activation of the Manduca G(M)MV EcR (ubi/GAL4-MV) (maize BMS cells, methoxytebufenozide 25 μM and 10 μM) | Fold Induction with Teb Relative to Receptor with EtOH [1] | Fold Induction with Teb Relative to Reporter with EtOH [1] | Normalized Average (EtOH) [2] | Fold Induction with Teb Relative to Receptor with EtOH [3] | Fold Induction with Teb Relative to Reporter with EtOH [3] | Normalized Average (EtOH) [4] | Experiment #1 Luciferase (Example 26, + 10 μM Teb) | Experiment #2 Luciferase (Example 26, + 10 μM Teb) | Experiment #1 Fold Induction [5] | Experiment #2 Fold Induction [5] | Experiment #1 Luciferase [6] | Experiment #2 Luciferase [6] | Experiment #1 RLU [7] | Experiment #2 RLU [7] | average fold induction with tebufenozide (maize BMS cells, 10 μM tebufenozide, average of assays) | rank of fold induction among D+E domain combinations (Example 24, BMS cells, 20 μM Teb)
COc1cccc(C(=O)NN(C(=O)c2cc(C)cc(C)c2)C(C)(C)C)c1C [methoxytebufenozide, reference compound] | 25 fold | – | – | – | – | – | – | – | – | – | – | – | – | – | – | – | –
G(M)MV: EcR chimera: GAL4 DNA binding domain, Manduca sexta D and E domains, VP16; SEQ ID NO:104-105 (protein, (1)..(3972) GAL4-Manduca EcR-VP16 fragment in pCGS202) MKLLSSIEQACDICRLKKLKCSKEKPKCAKCLKNNWECRYSPKTKRSPLTRAHLTEVESRLERLEQLFLLIFPREDLDMILKMDSLQDIKALLTGLFVQDNVNKDAVTDRLASVETDMPLTLRQHRISATSSSEESSNKGQRQLTVSTRMRPECVVPESTCKNKRREKEAQREKDKLPVSTTTVDDHMPAIMQCDPPPPEAARIHEVVPRFLTEKLMEQNRLKNVTPLSANQKSLIARLVWYQEGYEQPSEEDLKRVTQTWQLEEEEEEETDMPFRQITEMTILTVQLIVEFAKGLPGFSKISQSDQITLLKASSSEVMMLRVARRYDAATDSVLFANNQAYTRDNYRKAGMSYVIEDLLHFCRCMYSMSMDNVHYALLTAIVIFSDRPGLEQPLLVEEIQRYYLKTLRVYILNQHSASPRCAVLFGKILGVLTELRTLGTQNSNMCISLKLKNRKLPPFLEEIWDVAEVSTTKLAPPTDVSLGDELHLDGEDVAMAHADALDDFDLDMLGDGDSPGPGFTPHDSAPYGALDMADFEFEQMFTDALGIDEYGG | – | 44 fold | 83 fold | 6.889 | 15 fold | 61 fold | 1.721 | 99.49 | 136.41 | 16.7 fold | 35.1 fold | 5.97 | 3.89 | 3.73 RLU | 3.17 RLU | 36 fold | –
G(M)EV: EcR chimera: GAL4 DBD, Manduca sexta D domain, European corn borer E domain, VP16; SEQ ID NO:120-121 (protein) MQQLYVDFFSPAFIRYLFAWYCFFCRCSPCCLVLLLQGSATMKLLSSIEQACDICRLKKLKCSKEKPKCAKCLKNNWECRYSPKTKRSPLTRAHLTEVESRLERLEQLFLLIFPREDLDMILKMDSLQDIKALLTGLFVQDNVNKDAVTDRLASVETDMPLTLRQHRISATSSSEESSNKGQRQLTVSTRMRPECVVPESTCKNKRREKEAQREKDKLPVSTTTVDDHMPAIMQCDPPPPEAARIHEVVPRFLTEKLMEQNRLKNVTPLSANQKSLIARLVWYQDGYEQPSEEDLKRVTQTWQSADEEDEDSDMPFRQITEMTILTVQLIVEFAKGLPGFSKISQPDQITLLKACSSEVMMLRVARRYDAVSDSVLFANNQAYTRDNYRKAGMAYVIEDLLHFCRCMYSMSMDNVHYALLTAIVIFSDRPGLEQPQLVEEIQRYYLNTLRVYIMNQHSASPRCAVIYAKILSVLTELRTLGMQNSNMCISLKLKNRKLPPFLEEIWDVKLAPPTDVSLGDELHLDGEDVAMAHADALDDFDLDMLGDGDSPGPGFTPHDSAPYGALDMADFEFEQMFTDALGIDEYGG | – | 63 fold | 119 fold | 6.965 | 58 fold | 139 fold | 0.028 | – | – | – | – | – | – | – | – | – | highest fold induction
G(M)BV: EcR chimera: GAL4 DBD, Manduca sexta D domain, black cutworm E domain, VP16; SEQ ID NO:118-119 (protein) MQQLYVDFFSPAFIRYLFAWYCFFCRCSPCCLVLLLQGSATMKLLSSIEQACDICRLKKLKCSKEKPKCAKCLKNNWECRYSPKTKRSPLTRAHLTEVESRLERLEQLFLLIFPREDLDMILKMDSLQDIKALLTGLFVQDNVNKDAVTDRLASVETDMPLTLRQHRISATSSSEESSNKGQRQLTVSTRMRPECVVPESTCKNKRREKEAQREKDKLPVSTTTVDDHMPAIMQCDPPPPEAARIHEVVPRFLTEKLMEQNRLKNVTPLSANQKSLIARLVWYQEGYEQPSEEDLKRVTQTWQSDEDEEESDMPFRQITEMTILTVQLIVEFAKGLPGFAKISQSDQITLLKACSSEVMMLRVARRYDAATDSVLFANNQAYSRDNYRKAGMSYVIEDLLHFCRCMYSMMMDNVHYALLTAIVIFSDRPGLEQPLLVEEIQRYYLNTLRVYILNQNSASPRCPVVFAKILGILTELRTLGMQNSNMCISLKLKNRKLPPFLEEIWDVESRGKLAPPTDVSLGDELHLDGEDVAMAHADALDDFDLDMLGDGDSPGPGFTPHDSAPYGALDMADFEFEQMFTDALGIDEYGG | – | 34 fold | 81 fold | 8.701 | 26 fold | 95 fold | 1.539 | – | – | – | – | – | – | – | – | – | –
G(M)FV: EcR chimera: GAL4 DBD, Manduca sexta D domain, fall armyworm E domain, VP16; SEQ ID NO:122-123 (protein) MQQLYVDFFSPAFIRYLFAWYCFFCRCSPCCLVLLLQGSATMKLLSSIEQACDICRLKKLKCSKEKPKCAKCLKNNWECRYSPKTKRSPLTRAHLTEVESRLERLEQLFLLIFPREDLDMILKMDSLQDIKALLTGLFVQDNVNKDAVTDRLASVETDMPLTLRQHRISATSSSEESSNKGQRQLTVSTRMRPECVVPESTCKNKRREKEAQREKDKLPVSTTTVDDHMPAIMQCDPPPPEAARIHEVVPRFLTEKLMEQNRLKNVTPLSANQKSLIARLVWYQEGYEQPSEEDLKRVTQTWQLEEEEEEETDMPFRQITEMTILTVQLIVEFAKGLPGFSKISQSDQITLLKASSSEVMMLRVARRYDAATDSVLFANNQAYTRDNYRKAGMSYVIGDLLHFCRCMYSMSMDNVHYALLTAIVIFSDRPGLEQPLLVEEIQRYYLKTLRVYILNQYSASPRCAVLFGKILGVLTELRTLGTQNSNMCISLKLKNRKLPPFLEEIWDVKLAPPTDVSLGDELHLDGEDVAMAHADALDDFDLDMLGDGDSPGPGFTPHDSAPYGALDMADFEFEQMFTDALGIDEYGG | – | 51 fold | 52 fold | 3.766 | 24 fold | 57 fold | 0.484 | – | – | – | – | – | – | – | – | – | –
